How the values were obtained:
[1] = oral dosing in healthy men; cited from earlier work
total Te = conditions: overnight after oral KTCZ 1000 mg with DEX 0.75 mg at midnight; reduced from 530±61; cited from earlier work
Pulsatile LH secretion = test: Expected pulsatile LH secretion in KTCZ/DEX paradigm with Te addback; format: in vivo, human
Description: Volunteers (Forty (40) healthy men ages 18-80 years) arrived at a testing facility by 1730 hours and stayed two nights. At 1800-2000 hours, two i.v. catheters were placed in (contralateral) antecubital veins to allow concomitant saline or Te infusion and blood sampling. […] This regimen can reduce the concentration of total Te from 530±61 to 85±13 ng/dL overnight. […] Visits were greater than or equal to two weeks apart. The order of the four visits was prospectively randomized, and interventions were double-blind.
To enforce pulsatile negative feedback, 12 consecutive pulses of Te or saline was given i.v. on top of the basal infusion. […] To monitor LH and Te concentrations, blood samples (1.25 mL) were withdrawn every 10 min for 16 hours beginning at 0800 hours, FIG. 7.
Te was infused at a constant rate of 1.0 mg/24 hours from midnight (MN) until MN. There were 12 superimposed pulses each at a session-defined dose of zero (saline), 167, 333 or 500 μg delivered over 6 min every two hours from MN to 2200 hours. Resultant total (basal+pulsatile) Te infusion rates were equivalent to 1, 3, 5 and 7 mg/24 hours, thus spanning sub-, mid- and high-physiological Te production rates in healthy young men (normal interquartile range 4-6 mg/day) (Veldhuis et al., Physiological Basis of Aging and Geriatrics, 3rd edition, 213-231, Boca Raton, CRC Press (2003); Veldhuis, Reproductive Endocrinology, 4th edition, 622-631, Philadelphia, W.B. Saunders Co., (1999)). Crystalline testosterone was dissolved in 100% ethanol, diluted to less than 0.3% ethanol in normal saline, and microfiltered for i.v. infusion after sterility and pyrogen testing.
Estimates based on data described elsewhere (Zwart et al., J. Clin. Endocrinol. Metab. 82:2062-2069 (1997)) indicate that statistical power can exceed 90% to detect an effect of age that explains 33% or more of the variability in Te feedback sensitivity if 40 subjects are studied. The predicted slope±SD of feedback sensitivity regressed on age is (×10^−3) 1.5±0.25. […] Because an a priori postulate is that age reduces feedback sensitivity, a test of significance can be one-tailed; and because both sensitivity and efficacy can be examined, the experiment-wise critical value is P≦0.025.

[2] = Bayesian deconvolution of 24-hr pituitary-hormone concentration profiles (secretion and elimination parameters); format: in vivo, human; conditions: 24-hr 10-min sampled profile, ACTH, LH young, GH person
Description: The experimentalist requires an automated procedure by which to simultaneously detect pulse times and estimate secretion/kinetic features. […] In each case, discrete blood sampling (i.e., the withdrawal lasting 5-10 sec) was performed every 10 min for 24 hr. [Integrative sampling (continuous withdrawal) yields a time-integrated or flattened version of the impulse, thereby underestimating absolute peak values and overestimating interpulse valleys.] If the set (Y1, Y2, . . . , Yn) denotes observed hormone concentrations, n would be 145 for 10-min sampling over 24 hr. […] One would like to find values (a,b) so that, for a specified probability, e.g., 0.95, one can make the following probability statement:
Assuming that pulse-onset times are given by ℑm={T^1, T^2 . . . , T^m}, Keenan and Veldhuis give a model to estimate secretory dynamics conditional on pulse times (Keenan & Veldhuis, 1998; Keenan et al., 2000; Keenan et al., 1998). The primary components are basal and pulsatile secretion, a flexible secretory-burst shape, random effects on burst mass, biexponential elimination kinetics and combined experimental uncertainty in sample collection, processing and assay. We suppose that M, the amount of hormone secreted in the j^th burst (mass per unit distribution volume), is the sum of a finite amount of minimally available stores, a linear function of hormone accumulation over the preceding interpulse interval, and a random effect allowing for biological variability in individual burst mass:
In the present Bayesian approach, an a priori (prior) probability distribution is placed on the parameter space: Θ×ℑ, where ℑ={ℑN, ℑN-1, . . . , ℑp} in Eq. [16] and Θ denotes the parameter set in Eq. [14]. The prior density on Θ×ℑ is assumed to be a product: π×λ, with a uniform prior on Θ, π(θ)∝ to a Constant. The prior on ℑ is the Akaike Information Criterion (AIC) penalty for the number of pulse times m, λ(ℑm)∝exp(−m). […] Measured data Y=(Y1, Y2, . . . , Yn)′ are then incorporated via a likelihood function (Eq. [15]), resulting in the a posteriori (posterior) probability distribution on Θ×ℑ:
The algorithm of the present paper utilizes a mathematically justified procedure for simulating from the joint (Θ×ℑ) posterior distribution (Eq. [18]). The basic idea is that, for a given hormone concentration profile, one generates an array of (e.g. 100) simulations from the posterior distribution, which allows one then to make probabilistic statements about the parameters of pulse times, secretion and elimination.
total basal secretion as: n×β0, and total pulsatile as the difference. Repeated sampling of (θ,ℑm), and calculation of total pulsatile secretion (for each), produces a probability histogram approximating the posterior distribution for total pulsatile secretion, given an observed concentration profile. […] Specifically, in reference to Eq. [9]
Histograms are based on 100 simulations from the joint posterior distribution.

[3] = injected GnRH, i.v. bolus; cited from earlier work
[4] = 0.05 quantile of posterior distribution
[5] = 0.25 quantile of posterior distribution
[6] = 0.50 quantile of posterior distribution
[7] = 0.75 quantile of posterior distribution

With `CC(=O)N1CCN(c2ccc(OCC3COC(Cn4ccnc4)(c4ccc(Cl)cc4Cl)O3)cc2)CC1` (centres unmarked) [KTCZ, ketoconazole] as the compound, how does the half-life [1] read?
The half-life was “six”.

What about the “concentration of total Te” value (total Te) of the same compound?
The value was 85 ± 13 ng/dL.

What does the source list for `C[C@]12CC[C@H]3[C@@H](CCC4=CC(=O)CC[C@@]43C)[C@@H]1CC[C@@H]2O` [Te, testosterone]?
Pulsatile LH secretion (Pulsatile LH secretion; oldest subjects, 1 mg Te addback, free Te decrement 15 ng/dL): 2.0 IU/L/min; Pulsatile LH secretion (Pulsatile LH secretion; oldest subjects, 7 mg Te addback (start of expected increase)): 0.65 IU/L/min; Pulsatile LH secretion (Pulsatile LH secretion; youngest subjects, 1 mg Te addback, free Te decrement 17 ng/dL): 3.5 IU/L/min; Pulsatile LH secretion (Pulsatile LH secretion; youngest subjects, 7 mg Te addback (start of expected increase)): 0.50 IU/L/min

Which results are given for “adrenocorticotropin hormone (SYSMEHFRWGKPVGKKRRPVKVYPNGAEDESAEAFPLEF; Corticotropin; UniProt P01189 138-176, looked up) [ACTH, endogenous pituitary hormone measured in blood of a person]”?
Slow Half-Life [2, 4]: 9 min; Slow Half-Life [2, 5]: 11 min; Slow Half-Life [2, 6]: 15 min; Slow Half-Life [2, 7]: 19 min; Slow Half-Life ([2]; 0.95 quantile of posterior distribution): 25 min

Which results are given for gonadotropin-releasing hormone [GnRH]?
first-phase half-life [3]: 3 to 7 min; second-phase half-life [3]: 35 to 50 min

For growth hormone [GH], which “Slow Half-Life” value [2, 4] is on record?
The value was 28 min.

And the “Slow Half-Life” value [2, 5]?
The value was 31 min.

And the “Slow Half-Life” value [2, 6]?
The value was 31 min.

What about the “Slow Half-Life” value [2, 7] of the same compound?
Its value is 31 min.
